# IntAct's records for PubMed 15141091
# B1: Homeobox protein SIX1 (Mus musculus), Q62231 (parent)
# chain: MSMLPSFGFTQEQVACVCEVLQQGGNLERLGRFLWSLPACDHLHKNESVLKAKAVVAFHRGNFRELYKILESHQFSPHNHPKLQQLWLKAHYVEAEKLRGRPLGAVGKYRVRRKFPLPRTIWDGEETSYCFKEKSRGVLREWYAHNPYPSPREKRELAEATGLTTTQVSNWFKNRRQRDRAAEAKERENTENNNSSSNKQNQLSPLEGGKPLMSSSEEEFSPPQSPDQNSVLLLQSNMGHARSSNYSLPGLTASQPSHGLQAHQHQLQDSLLGPLTSSLVDLGS
# partner: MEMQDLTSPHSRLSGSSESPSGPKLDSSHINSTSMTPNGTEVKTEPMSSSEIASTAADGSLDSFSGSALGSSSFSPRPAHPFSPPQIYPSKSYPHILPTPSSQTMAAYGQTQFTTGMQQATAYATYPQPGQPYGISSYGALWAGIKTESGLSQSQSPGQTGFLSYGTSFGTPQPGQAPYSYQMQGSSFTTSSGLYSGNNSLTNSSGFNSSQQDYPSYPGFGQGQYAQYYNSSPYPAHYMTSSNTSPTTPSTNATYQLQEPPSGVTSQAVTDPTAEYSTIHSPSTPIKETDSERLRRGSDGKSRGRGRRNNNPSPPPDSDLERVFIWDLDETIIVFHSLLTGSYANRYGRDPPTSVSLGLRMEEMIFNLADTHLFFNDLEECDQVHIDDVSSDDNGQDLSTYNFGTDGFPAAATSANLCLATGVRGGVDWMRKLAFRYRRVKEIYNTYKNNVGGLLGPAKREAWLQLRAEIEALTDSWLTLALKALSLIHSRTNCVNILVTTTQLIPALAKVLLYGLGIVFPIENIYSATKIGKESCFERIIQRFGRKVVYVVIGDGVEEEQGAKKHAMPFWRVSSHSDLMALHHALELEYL
# Variants of: B1
# Details: with eya1_mouse Eya1, P97767
row,effect of a mutation on the interaction,Variant
1,decreasing interaction,MSMLPSFGFTQEQVACVCEVLQQGGNLERLGRFLWSLPACDHLHKNESVLKAKAVVAFHRGNFRELYKILESHQFSPHNHPKLQQLWLKAHYVEAEKLRGRPLGAVGKYRVRRKFPLPRTIWDGEETSCCFKEKSRGVLREWYAHNPYPSPREKRELAEATGLTTTQVSNWFKNRRQRDRAAEAKERENTENNNSSSNKQNQLSPLEGGKPLMSSSEEEFSPPQSPDQNSVLLLQSNMGHARSSNYSLPGLTASQPSHGLQAHQHQLQDSLLGPLTSSLVDLGS [Y129C]
2,decreasing interaction,MSMLPSFGFTQEQVACVCEVLQQGGNLERLGRFLWSLPACDHLHKNESVLKAKAVVAFHRGNFRELYKILESHQFSPHNHPKLQQLWLKAHYVEAEKLRGRPLGAVGKYWVRRKFPLPRTIWDGEETSYCFKEKSRGVLREWYAHNPYPSPREKRELAEATGLTTTQVSNWFKNRRQRDRAAEAKERENTENNNSSSNKQNQLSPLEGGKPLMSSSEEEFSPPQSPDQNSVLLLQSNMGHARSSNYSLPGLTASQPSHGLQAHQHQLQDSLLGPLTSSLVDLGS [R110W]
